Test results published in patent US20230002480A1.

Columns and labels:
Assay in all cases: cell-based or functional assay
[1] = target: HIV-1 Env of pseudovirus 191084 B7-19 (HIV-1)
[2] = target: HIV-1 Env of pseudovirus 6952.v1.c20 (clade CD) (HIV-1)
[3] = target: HIV-1 Env of pseudovirus 6041.v3.c23 (clade AC) (HIV-1)
[4] = target: HIV-1 Env of pseudovirus A07412M1.vrc12 (clade D) (HIV-1)
[5] = target: HIV-1 Env of pseudovirus 3301.v1.c24 (clade AC) (HIV-1)
[6] = target: HIV-1 Env of pseudovirus 3817.v2.c59 (clade CD) (HIV-1)
[7] = target: HIV-1 Env of pseudovirus 6811.v7.c18 (clade CD) (HIV-1)
[8] = target: HIV-1 Env of pseudovirus 3415.v1.c1 (HIV-1)
[9] = target: HIV-1 Env of pseudovirus X2131_C1_B5 (clade G) (HIV-1)
[10] = target: HIV-1 Env of pseudovirus 3016.v5.c45 (clade D) (HIV-1)
[11] = target: HIV-1 Env of pseudovirus 3103.v3.c10 (clade ACD) (HIV-1)
[12] = target: HIV-1 Env of pseudovirus P1981_C5_3 (clade G) (HIV-1)
[13] = target: HIV-1 Env of pseudovirus 6540.v4.c1 (clade AC) (HIV-1)
[14] = target: HIV-1 Env of pseudovirus X1632_S2_B10 (clade G) (HIV-1)
[15] = target: HIV-1 Env of pseudovirus 231965.c01 (clade D) (HIV-1)
[16] = target: HIV-1 Env of pseudovirus 0260.v5.c36 (HIV-1)
[17] = target: HIV-1 Env of pseudovirus 231966.c02 (clade D) (HIV-1)
[18] = target: HIV-1 Env of pseudovirus 6480.v4.c25 (clade CD) (HIV-1)
[19] = target: HIV-1 Env of pseudovirus Q23.17 (HIV-1)
[20] = target: HIV-1 Env of pseudovirus Ce1176_A3 (HIV-1)
[21] = target: HIV-1 Env of pseudovirus BJOX010000.06.2 (HIV-1)
[22] = target: HIV-1 Env of pseudovirus 0815.v3.c3 (clade ACD) (HIV-1)
[23] = target: HIV-1 Env of pseudovirus 89-F1_2_25 (clade CD) (HIV-1)
[24] = target: HIV-1 Env of pseudovirus 6545.v4.c1 (clade AC) (HIV-1)

Work on N49P7 (antibody) yielded a neutralization IC50 [1] of 0.047 µg/mL, a neutralization IC80 [1] of 0.142 µg/mL and a neutralization MPI [1] of 100. The IC50, neutralization titer in TZM.bl cells [2] was 18.4 µg/mL, the IC80, neutralization titer in TZM.bl cells [2] was 38.9 µg/mL and the MPI, neutralization in TZM.bl cells [2] was 91. The IC50, neutralization titer in TZM.bl cells [3] was 0.047 µg/mL, the IC80, neutralization titer in TZM.bl cells [3] was 0.222 µg/mL and the MPI, neutralization in TZM.bl cells [3] was 100. The IC50, neutralization titer in TZM.bl cells [4] was 0.108 µg/mL, the IC80, neutralization titer in TZM.bl cells [4] was 0.645 µg/mL and the MPI, neutralization in TZM.bl cells [4] was 100. For the same substance, the IC50, neutralization titer in TZM.bl cells [5] was 0.025 µg/mL, the IC80, neutralization titer in TZM.bl cells [5] was 0.069 µg/mL and the MPI, neutralization in TZM.bl cells [5] was 100. For the same substance, the IC50, neutralization titer in TZM.bl cells [6] was 0.716 µg/mL, the IC80, neutralization titer in TZM.bl cells [6] was 3.73 µg/mL and the MPI, neutralization in TZM.bl cells [6] was 99. It also gave an IC50, neutralization titer in TZM.bl cells [7] of 0.229 µg/mL, an IC80, neutralization titer in TZM.bl cells [7] of 0.992 µg/mL and an MPI, neutralization in TZM.bl cells [7] of 100. For the same substance, the neutralization IC50 [8] was 0.16 µg/mL, the neutralization IC80 [8] was 0.55 µg/mL and the neutralization MPI [8] was 100. It also gave an IC50, neutralization titer in TZM.bl cells [9] of 0.081 µg/mL, an IC80, neutralization titer in TZM.bl cells [9] of 0.273 µg/mL and an MPI, neutralization in TZM.bl cells [9] of 100. For the same substance, the IC50, neutralization titer in TZM.bl cells [10] was 0.221 µg/mL, the IC80, neutralization titer in TZM.bl cells [10] was 1.04 µg/mL and the MPI, neutralization in TZM.bl cells [10] was 100. For the same substance, the IC50, neutralization titer in TZM.bl cells [11] was 0.158 µg/mL, the IC80, neutralization titer in TZM.bl cells [11] was 0.509 µg/mL and the MPI, neutralization in TZM.bl cells [11] was 100. For the same substance, the IC50, neutralization titer in TZM.bl cells [12] was 0.113 µg/mL, the IC80, neutralization titer in TZM.bl cells [12] was 0.274 µg/mL and the MPI, neutralization in TZM.bl cells [12] was 100. The IC50, neutralization titer in TZM.bl cells [13] was 11.7 µg/mL, the IC80, neutralization titer in TZM.bl cells [13] was 33.2 µg/mL and the MPI, neutralization in TZM.bl cells [13] was 92. The IC50, neutralization titer in TZM.bl cells [14] was 12 µg/mL, the IC80, neutralization titer in TZM.bl cells [14] was 40.4 µg/mL and the MPI, neutralization in TZM.bl cells [14] was 85. The IC50, neutralization titer in TZM.bl cells [15] was 0.054 µg/mL, the IC80, neutralization titer in TZM.bl cells [15] was 0.193 µg/mL and the MPI, neutralization in TZM.bl cells [15] was 100. The neutralization IC50 [16] was 0.354 µg/mL, the neutralization IC80 [16] was 0.884 µg/mL and the neutralization MPI [16] was 100. It also gave an IC50, neutralization titer in TZM.bl cells [17] of 0.102 µg/mL, an IC80, neutralization titer in TZM.bl cells [17] of 0.43 µg/mL and an MPI, neutralization in TZM.bl cells [17] of 100. For the same substance, the IC50, neutralization titer in TZM.bl cells [18] was 0.031 µg/mL, the IC80, neutralization titer in TZM.bl cells [18] was 0.113 µg/mL and the MPI, neutralization in TZM.bl cells [18] was 100. The neutralization IC50 [19] was 0.052 µg/mL, the neutralization IC80 [19] was 0.21 µg/mL and the neutralization MPI [19] was 100. For the same substance, the neutralization IC50 [20] was 0.204 µg/mL, the neutralization IC80 [20] was 0.589 µg/mL and the neutralization MPI [20] was 100. The neutralization IC50 [21] was 0.085 µg/mL, the neutralization IC80 [21] was 0.592 µg/mL and the neutralization MPI [21] was 100. For the same substance, the IC50, neutralization titer in TZM.bl cells [22] was 0.016 µg/mL, the IC80, neutralization titer in TZM.bl cells [22] was 0.053 µg/mL and the MPI, neutralization in TZM.bl cells [22] was 100. The IC50, neutralization titer in TZM.bl cells [23] was 21.6 µg/mL, the IC80, neutralization titer in TZM.bl cells [23] was over 50 µg/mL and the MPI, neutralization in TZM.bl cells [23] was 80. The IC50, neutralization titer in TZM.bl cells [24] was 2 µg/mL, the IC80, neutralization titer in TZM.bl cells [24] was 14.7 µg/mL and the MPI, neutralization in TZM.bl cells [24] was 96.
N49P7.1 (antibody) showed a neutralization IC50 [1] of 0.069 µg/mL, a neutralization IC80 [1] of 0.2 µg/mL and a neutralization MPI [1] of 100. The IC50, neutralization titer in TZM.bl cells [2] was 26.3 µg/mL, the IC80, neutralization titer in TZM.bl cells [2] was over 50 µg/mL and the MPI, neutralization in TZM.bl cells [2] was 71. The IC50, neutralization titer in TZM.bl cells [3] was 0.078 µg/mL, the IC80, neutralization titer in TZM.bl cells [3] was 0.366 µg/mL and the MPI, neutralization in TZM.bl cells [3] was 100. The IC50, neutralization titer in TZM.bl cells [4] was 0.232 µg/mL, the IC80, neutralization titer in TZM.bl cells [4] was 1.07 µg/mL and the MPI, neutralization in TZM.bl cells [4] was 100. The IC50, neutralization titer in TZM.bl cells [5] was 0.041 µg/mL, the IC80, neutralization titer in TZM.bl cells [5] was 0.111 µg/mL and the MPI, neutralization in TZM.bl cells [5] was 100. It also gave an IC50, neutralization titer in TZM.bl cells [6] of 1.48 µg/mL, an IC80, neutralization titer in TZM.bl cells [6] of 8.36 µg/mL and an MPI, neutralization in TZM.bl cells [6] of 97. It also gave an IC50, neutralization titer in TZM.bl cells [7] of 0.321 µg/mL, an IC80, neutralization titer in TZM.bl cells [7] of 1.46 µg/mL and an MPI, neutralization in TZM.bl cells [7] of 100. The neutralization IC50 [8] was 0.191 µg/mL, the neutralization IC80 [8] was 0.647 µg/mL and the neutralization MPI [8] was 100. It also gave an IC50, neutralization titer in TZM.bl cells [9] of 0.129 µg/mL, an IC80, neutralization titer in TZM.bl cells [9] of 0.431 µg/mL and an MPI, neutralization in TZM.bl cells [9] of 100. It also gave an IC50, neutralization titer in TZM.bl cells [10] of 0.559 µg/mL, an IC80, neutralization titer in TZM.bl cells [10] of 2.54 µg/mL and an MPI, neutralization in TZM.bl cells [10] of 100. For the same substance, the IC50, neutralization titer in TZM.bl cells [11] was 0.229 µg/mL, the IC80, neutralization titer in TZM.bl cells [11] was 0.772 µg/mL and the MPI, neutralization in TZM.bl cells [11] was 100. For the same substance, the IC50, neutralization titer in TZM.bl cells [12] was 0.216 µg/mL, the IC80, neutralization titer in TZM.bl cells [12] was 0.494 µg/mL and the MPI, neutralization in TZM.bl cells [12] was 100. For the same substance, the IC50, neutralization titer in TZM.bl cells [13] was 14.7 µg/mL, the IC80, neutralization titer in TZM.bl cells [13] was over 50 µg/mL and the MPI, neutralization in TZM.bl cells [13] was 75. For the same substance, the IC50, neutralization titer in TZM.bl cells [14] was 17.9 µg/mL, the IC80, neutralization titer in TZM.bl cells [14] was over 50 µg/mL and the MPI, neutralization in TZM.bl cells [14] was 65. For the same substance, the IC50, neutralization titer in TZM.bl cells [15] was 0.106 µg/mL, the IC80, neutralization titer in TZM.bl cells [15] was 0.364 µg/mL and the MPI, neutralization in TZM.bl cells [15] was 100. For the same substance, the neutralization IC50 [16] was 0.497 µg/mL, the neutralization IC80 [16] was 1.51 µg/mL and the neutralization MPI [16] was 100. The IC50, neutralization titer in TZM.bl cells [17] was 0.203 µg/mL, the IC80, neutralization titer in TZM.bl cells [17] was 0.705 µg/mL and the MPI, neutralization in TZM.bl cells [17] was 100. The IC50, neutralization titer in TZM.bl cells [18] was 0.056 µg/mL, the IC80, neutralization titer in TZM.bl cells [18] was 0.192 µg/mL and the MPI, neutralization in TZM.bl cells [18] was 100. It also gave a neutralization IC50 [19] of 0.077 µg/mL, a neutralization IC80 [19] of 0.208 µg/mL and a neutralization MPI [19] of 100. The neutralization IC50 [20] was 0.279 µg/mL, the neutralization IC80 [20] was 1.01 µg/mL and the neutralization MPI [20] was 100. For the same substance, the neutralization IC50 [21] was 0.132 µg/mL, the neutralization IC80 [21] was 0.623 µg/mL and the neutralization MPI [21] was 100. The IC50, neutralization titer in TZM.bl cells [22] was 0.023 µg/mL, the IC80, neutralization titer in TZM.bl cells [22] was 0.064 µg/mL and the MPI, neutralization in TZM.bl cells [22] was 100. The IC50, neutralization titer in TZM.bl cells [23] was 41.6 µg/mL, the IC80, neutralization titer in TZM.bl cells [23] was over 50 µg/mL and the MPI, neutralization in TZM.bl cells [23] was 58. The IC50, neutralization titer in TZM.bl cells [24] was 1.15 µg/mL, the IC80, neutralization titer in TZM.bl cells [24] was 16 µg/mL and the MPI, neutralization in TZM.bl cells [24] was 92.
